In patent US6887467B1, “Double mutants of dihydrofolate reductase and methods of using same” (Sloan-Kettering Institute for Cancer Research, priority 1996, dated 2005):
Where two headings read alike, the source gives them in different places. Values belong to the molecule of their own block, whether it stands above or below them.

Tests used:
[1] = test system: human DHFR (wild type and variants); assay: Inhibition constants (Ki) of antifolates for DHFR variants from steady state reaction rates; format: biochemical; conditions: for Ki Kcat/km relative: relative to wt = 1, MTX
Excerpt: The first parameter, Ki, is the “inhibition constant” and reflects the level of inhibition by a given compound. Ki, is obtained from steady state reaction rates observed for mixtures of enzyme, cofactor. 7,8-dihydrofolate (the normal substrate) and variable levels of antifolate. The higher the value of Ki, the higher the concentration of antifolate required to inhibit the activity of the enzyme on the normal substrate.
(§1) The parameters Km and kcat can be combined to provide a measure of overall catalytic efficiency which is given by kcat/Km. High levels of catalytic efficiency are preferred.

[2] = test system: human DHFR (wild type and variants); assay: Kinetic parameters (Km, kcat) of purified DHFR variants with 7,8-dihydrofolate; format: biochemical
Description: Km or the “Michaelis constant” reflects the ability of an enzyme to convert a given substrate to product. In this case, the substrate is the normal substrate, 7,8-dihydrofolate. Km is determined using a double reciprocal plot of the initial velocity of the reaction as a function of the concentration of the substrate. Higher values of Km reflect a decreased affinity for the normal substrate.
kcat reflects the catalytic turnover of the enzyme. kcat values are obtained by active site titration experiments using MTX or from activity and total protein measurements of purified enzyme species.
as §1
Enzyme expressed by the transformed E. coli was purified using an MTX-affinity column, followed by DEAE-Sephacel column chromatography.

Molecule: N[C@@H](Cc1ccc(O)cc1)C(=O)O [22 tyrosine, reference compound]
Ki Kcat/km relative [1]: 104

Ki ([1]; inhibitor aminopterin, read-out: Ki APT): 1.8 pM
Ki ([1]; inhibitor methotrexate, read-out: Ki (MTX)): 1.2 pM
Ki ([1]; inhibitor piritrexin, read-out: Ki PTX): 132 pM
Ki ([1]; inhibitor trimetrexate, read-out: Ki TMTX): 13 pM
B1: wild type: wild-type human dihydrofolate reductase, leucine at amino acid 22 and phenylalanine at amino acid 31 (protein, UniProt P00374 1-187, looked up)
Dihydrofolate reductase: MVGSLNCIVAVSQNMGIGKNGDLPWPPLRNEFRYFQRMTTTSSVEGKQNLVIMGKKTWFSIPEKNRPLKGRINLVLSRELKEPPQGAHFLSRSLDDALKLTEQPELANKVDMVWIVGGSSVYKEAMNHPGHLKLFVTRIMQDFESDTFFPEIDLEKYKLLPEYPGVLSDVQEEKGIKYKFEVYEKND
Ki Kcat/km ([1]; product of Ki (MTX) and catalytic efficiency): 0.191 s⁻¹
Ki Kcat/km relative [1]: 1
kcat [2]: 12.7 s⁻¹
Km ([2]; substrate 7,8-dihydrofolate, read-out: Km (H2folate)): 0.08 µM
